According to patent publication US20020098193A1:

Tests used:
[1] = target: T1, FcRn of neonatal mouse intestine (mouse) (UniProt Q61559); assay: cell-based or functional assay
T1 sequence (looked up): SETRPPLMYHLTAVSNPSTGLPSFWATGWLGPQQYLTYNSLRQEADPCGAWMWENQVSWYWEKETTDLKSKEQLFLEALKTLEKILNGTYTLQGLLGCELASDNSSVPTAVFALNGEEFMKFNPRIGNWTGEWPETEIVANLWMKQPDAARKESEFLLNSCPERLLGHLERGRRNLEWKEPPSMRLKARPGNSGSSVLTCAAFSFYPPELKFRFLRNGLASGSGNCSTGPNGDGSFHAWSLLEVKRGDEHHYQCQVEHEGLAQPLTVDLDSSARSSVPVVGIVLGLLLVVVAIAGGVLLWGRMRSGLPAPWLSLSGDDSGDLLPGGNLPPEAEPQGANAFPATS
T1 sequence (b2m, looked up): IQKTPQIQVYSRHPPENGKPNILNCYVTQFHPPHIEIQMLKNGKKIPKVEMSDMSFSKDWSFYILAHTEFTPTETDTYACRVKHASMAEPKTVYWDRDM

[2] = target: recombinant soluble mouse FcRn (mouse) (UniProt Q61559); assay: inhibition of 125I-sFcRn binding to murine IgG1-Sepharose; molar ratio of inhibitor/FcRn given as 1/500
[3] = target: recombinant soluble mouse FcRn (mouse) (UniProt Q61559); assay: inhibition of 125I-sFcRn binding to murine IgG1-Sepharose; molar ratio of inhibitor/FcRn given as 1/1000

Inhibition of transmission (%) of radiolabeled mIgG1 across the intestine of neonatal mice [1]: 51.4% | % inhibition [2]: 24.7% | % inhibition [3]: 45.6%
B1: complete murine IgG1 molecule (antibody, part only; not given: variable domains and Fab arms, not shown: another chain or arm of the molecule)
Fc: VPRDCGCKPCICTVPEVSSVFIFPPKPKDVLTITLTPKVTCVVVDISKDDPEVQFSWFVDDVEVHTAQTQPREEQFNSTFRSVSELPIMHQDWLNGKEFKCRVNSAAFPAPIEKTISKTKGRPKAPQVYTIPPPKEQMAKDKVSLTCMITDFFPEDITVEWQWNGQPAENYKNTQPIMNTNGSYFVYSKLNVQKSNWEAGNTFTCSVLHEGLHNHHTEKSLSHSPGK
modifications: Glycosylated whole IgG1 from hybridoma or mammalian cells; used free, 125I-labelled or coupled to Sepharose. Two heavy chains are joined at the hinge.
